From the Immune Epitope Database (IEDB)

Each sequence was assayed against HLA-A*02:01 (assay: IEDB peptide-MHC binding, purified MHC/competitive/radioactivity; filed as Kd, often an IC50 or EC50 that approximates it; ≥ and ≤ were set here for values at or beyond the usual limits of such assays). Conditions: source organism: Homo sapiens.

Sequence | Kd [µM]
AARPDDPTL | ≥ 10
ALPYWNFAT | 1.35
ATGRNECDV | ≥ 10
LLAFLQYRRL | 1.52
LLSCLGCKI | 3.57
LLVVMGTLV | 1.35
QGRGQCTEV | ≥ 10
SAANDPIFV | 4.54
STFSFRNAL | ≥ 10
TTQHWLGLL | ≥ 10
WLGLLGPNG | ≥ 10
WMKRFNPPA | 8.33

More lines, now with the values ahead:

Kd [µM] | Sequence
≥ 10 | AANDPIFVV
≥ 10 | ALDLAKKRV
≥ 10 | CLERDLQRL
≥ 10 | GAQGQFPRV
4.54 | GTLVALVGL
≥ 10 | ITTQHWLGL
≥ 10 | LAFLQYRRL
≥ 10 | LLSCLGCKIL
≥ 10 | NCERKKPPV
≥ 10 | NCSVYDFFV
2.63 | QLGYSYAIDL
≥ 10 | QMGRNSMKL
2.63 | TLLVVMGTL
7.14 | VALVGLFVL
7.14 | VCMTVDSLV
≥ 10 | YTPLMETHL

What follows are sequences tested against HLA-A*02:01 (assay: IEDB peptide-MHC binding, purified MHC/competitive/radioactivity; ≥ and ≤ were set here for values at or beyond the usual limits of such assays). Conditions: source organism: Homo sapiens.

Sequence | IC50 [µM]
FVTWHRYHL | 0.943
LIGNESFAL | 0.385
QVMSLHNLV | 0.676
TLLVVMGTLV | 0.357
TLVALVGLFV | 0.029
VLHSFTDAI | 0.417
VTWHRYHLL | 0.161

The remaining lines, values ahead:

IC50 [µM] | Sequence
0.026 | ALVGLFVLL
0.161 | TLDSQVMSL
